The text below walks through data of patent US20210101964A1 (UCB, published 2021).

To fix the notation:
T1: biotinylated peptide corresponding to residues 117 to 126 of human alpha synuclein (PVDPDNEAYE) (human, also: biotinylated, position not given here)
T1 construct: Captured on streptavidin plates for the ELISA
T1 peptide: PVDPDNEAYE

B1: Antibody 5811gL8gH4 IgG4P (antibody, V domains shown)
VH: EVQLVESGGGLVKPGGSLRLSCAASGFTFNNAAMYWVRQAPGKGLEWVARIRTKPNNYATSYADSVKGRFTISRDDSKNTLYLQMNSLKTEDTAVYYCTADYSRGDRWGQGTMVTVSS
VL: DIQMTQSPSSLSASVGDRVTITCKASQNINKNLDWYQQKPGKAPKLLIYYANNLQTGVPSRFSGSGSGTDFTLTISSLQPEDFATYYCYQYKNGWTFGQGTKVEIKR
B2: Antibody 5811gL14gH4 IgG4P (antibody, V domains shown)
VH: B1 VH
VL: B1 VL with G94A
B3: Antibody 5811gL5gH4 IgG4P (antibody, V domains shown)
VH: B1 VH
VL: B1 VL with F71Y
notes: also called VR5811
B4: peptide AS104-113 (peptide)
peptide: Ac-EEGAPQEGIL-NH2
notes: Synthetic peptide of human alpha synuclein
B5: rat-mouse chimeric recombinant antibody 5811 mFab (Fab, V domains shown)
VH: EMQLVESGGGLVQPKESLKISCAASGFTFNNAAMYWVRQAPGKGLEWVARIRTKPNNYATSYADSVKGRFTISRDDSKSMVYLQMDNLKSEDTAMYYCTADYSRGDRWGQGVMVTVSS
VL: NIQMTQSPPVLSASVGDRVTLSCKASQNINKNLDWYQQKHGEAPKLLMYYANNLQTGIPSRFSGSGSGTDYTLTISSLQPEDVATYYCYQYKNGWTFGGGTKLELKR
B6: rat-mouse chimeric recombinant antibody 5811 mIgG1 (antibody, V domains shown)
VH: B5 VH
VL: B5 VL
B7: Chimeric rat-human 5811 antibody (antibody, V domains shown)
VH: B5 VH
VL: NIQMTQSPPVLSASVGDRVTLSCKASQNINKNLDWYQQKHGEAPKLLMYYANNLQTGIPSRFSGSGSGTDYTLTISSLQPEDVATYYCYQYKNGWTFGGGTKLELK
notes: It was prepared like the humanized antibodies, with the human kappa constant region (Km3) and human gamma-4 with S241P (IgG4P); also called parental rat-human antibody

Residue numbers refer to the chain shown, from its start. Numbers in names are those of the source. Ends that are not written are not given here.

The target of test [1] is B5. In words: competitive SPR (Biacore 3000): 50 nM 5811 mFab pre-incubated with 1 µM peptide, injected over immobilised human alpha synuclein monomer and fibrils. (SPR reads the build-up and loss of mass on a sensor chip optically.)
Protocol: Recombinant human alpha synuclein monomer and pre-formed alpha synuclein fibrils were immobilized on a CM5 chip using a Biacore 3000 instrument (GE Healthcare). Following activation of the carboxymethyl dextran surface by injection of 100 μl of a fresh 1:1 (v/v) mixture of 50 mM N-hydroxysuccimide and 200 mM 1-ethyl-3-(3-dimethylaminopropyl)-carbodiimide at a flow rate of 10 μl/min HBS-EP (GE Healthcare) as running buffer, coupling was achieved by injecting 100 μl of monomer and fibrils, at 5 μM in 10 mM acetate pH 5.0, over separate flow cells. A reference flow cell was activated in the same manner and then all flow cell surfaces were deactivated with a 50 μl pulse of 1 M ethanolamine.HCl pH 8.5.
Peptide solutions were prepared in running buffer at 100 μM and a peptide blank control prepared as a 1 in 100 dilution of DMSO in running buffer. […] Sensograms were recorded for each sample by injecting 30 μl of the mixture at 10 μl/min and recording a report point 5 seconds before the end of the injection. The chip was regenerated at the end of each cycle by two 10 μl injections of 40 mM HCl and one injection of 5 mM NaOH. Control cycles were alternated with peptide cycles.
In test [2] the target is T2, recombinant human alpha synuclein fibrils (human, UniProt P37840 1-140). In words: cell-based or functional assay.
The target in test [3] is T2, recombinant human alpha synuclein …. In words: kinetics on alpha synuclein fibrils; method not named in Example 4 (ka1/kd1 as in the Biacore bivalent analyte model).
Test [4] has the same target. The test is described as follows: cell-based or functional assay. This is another data set of the same source.
Test [5] has the same target. The test is described as follows: kinetics on human fibril; method not named (same values as Table 5).
The target in test [6] is T3, recombinant full-length human alpha synuclein monomer (human, UniProt P37840 1-140). The test is described as follows: SPR (Biacore T200), antigen amine-coupled to CM5 chip, Fab as analyte, 1:1 model.
Protocol: (§1) Interaction kinetics were determined by using surface plasmon resonance technology on a Biacore T200 instrument. Three different ligands including recombinant full-length human alpha synuclein monomer, purified recombinant human alpha synuclein fibrils, and purified recombinant mouse alpha synuclein fibrils, prepared as described herein, were each immobilized on three different flow cells of a CM5 chip surface using amine-coupling chemistry. The three ligands were prepared in 10 mM NaAc, pH 3.5, and immobilized onto separate flow cell surfaces to reach an immobilization level of about 30 response units (RU) for alpha synuclein monomer, about 40 RU for human alpha synuclein fibrils, and about 300 RU for mouse alpha synuclein fibrils respectively, at a flow rate of 10 μl/min. The buffer HBS-EP+(GE healthcare Bio-Sciences AB) was used as running buffer for both ligand immobilization and kinetics assay. […] The surface was regenerated by one injection of 50 mM HCl for 90 s at 10 μl/min, and another injection of 50 mM HCl for 60 s at 10 μl/min. The data were analyzed using the Biacore T200 evaluation software (version 3.0) using the bivalent analyte model with assumed no bulk contribution (RI=0) and global Rmax for mIgG1 format, and 1:1 model with flexible bulk contribution (local RI) and global Rmax.
Test [7] addresses T2, recombinant human alpha synuclein …. The test is described as above.
Protocol: as §1
The target in test [8] is T4, recombinant mouse alpha synuclein fibrils (mouse, UniProt O55042 1-140). The description is as above.
Protocol: as §1
The target of test [9] is T1, biotinylated peptide corresponding to …. In words: streptavidin-capture ELISA on biotinylated peptide PVDPDNEAYE, HRP secondary antibody, TMB, OD 630 nm. In general terms: ELISA stands for enzyme-linked immunosorbent assay.
Protocol: Purified rat-mouse chimeric antibodies were then subject to further screening by ELISA. […] Plates were blocked with 1% w/v PEG/PBS and then incubated with several dilutions of purified transient supernatant. Secondary HRP-conjugated goat anti-mouse IgG Fc antibody (Stratech Scientific Ltd/Jackson ImmunoResearch) was added to plates, followed by visualization of binding with TMB substrate (3,3′,5,5′-Tetramethylbenzidine, from EMD Millipore; 10 μl/well).
For test [10], the target named is T5, human beta synuclein (rPeptide) (human, UniProt Q16143 1-134).
T5 construct: also called rPeptide beta synuclein; human betα-synuclein
T5 sequence (Q16143 whole entry): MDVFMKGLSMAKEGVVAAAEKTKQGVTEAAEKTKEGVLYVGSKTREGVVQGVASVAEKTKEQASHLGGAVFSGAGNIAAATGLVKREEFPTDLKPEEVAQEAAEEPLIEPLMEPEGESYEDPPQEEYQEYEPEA
The test is described as follows: Western blot. (In western blotting, separated proteins are transferred to a membrane and probed.)
Protocol: The binding of antibodies raised against human alpha synuclein to human beta synuclein were tested by Western blot using rPeptide beta synuclein. […] The membrane was blocked in PBS with 3% BSA and 0.1% Tween20. […] The blot was washed extensively in PBS with 0.1% Tween20, PBS and water. Chemi-luminescence was measured after addition of ECL Western blot substrate (Pierce).
The blot was washed after 1-hour incubation at room temperature with 0.1% Tween in PBS.

The target of test [11] is T3, recombinant full-length human alpha …. The test is described as follows: SPR (Biacore T200), antigen amine-coupled to CM5 chip, IgG as analyte, bivalent analyte model (KD1).
Protocol: as §1
Test [12] has as its target T2, recombinant human alpha synuclein …. Described as above.
Protocol: as §1
The target in test [13] is T4, recombinant mouse alpha synuclein …. The test is described as above.
Protocol: as §1

Consider Ac-DNEAYEMPSE-NH2 [peptide AS121-130], for which the binding result in test [1] is “no binding (tested: 1 µM)”.
Take B1: in test [2], the “IC50, aggregation assay on mouse primary neurons (pSer129 alpha synuclein signal)” value (“IC50, aggregation assay” for short) was under 5 nM and the “IC50, cell-based aggregation assay (HEK cells expressing alpha synuclein, % pSer129+ cells)” value is at most 5 nM. In test [3], the Kd was determined as 0.0159 nM, the koff worked out at 5.17e-05 s⁻¹ and the on-rate constant (kon) was determined as 3.26e+06 M⁻¹ s⁻¹.
Turning to B2, in test [2], the “IC50, aggregation assay” value is under 5 nM and the “IC50, cell-based aggregation assay (HEK cells expressing alpha synuclein, % pSer129+ cells)” value was at most 5 nM. In [3], the Kd is 0.0185 nM, the koff amounted to 2.04e-05 s⁻¹ and the kon was 1.1e+06 M⁻¹ s⁻¹.
B3: in [2], the “IC50, aggregation assay” value was under 5 nM and the “IC50, cell-based aggregation assay (HEK cells expressing alpha synuclein, % pSer129+ cells)” value was at most 5 nM. The “IC50 (nM), cell-based aggregation assays” value in test [4] was under 5 nM. Besides, in [5], the Kd came to 0.015 nM, the koff is 4.1e-05 s⁻¹ and the kon came to 2.74e+06 M⁻¹ s⁻¹. In [3], the Kd came out at 0.015 nM, the koff is 4.1e-05 s⁻¹ and the kon came to 2.74e+06 M⁻¹ s⁻¹.
As for Ac-GILEDMPVDP-NH2 [peptide AS111-120], the binding result in test [1] is reported as “no binding (tested: 1 µM)”.
On the same count and under the same terms, with Ac-YEMPSEEGYQ-NH2 [peptide AS125-134] the entry was “no binding (tested: 1 µM)”; with Ac-DPDNEAYEMP-NH2 [peptide AS119-128], “binds”.
On the same count and under the same terms, for Ac-EGYQDYEPEA-OH (also called AS131-140) [131-140] the value was “no binding (tested: 1 µM)”; for B4, “no binding (tested: 1 µM)”.
The same measure, in the same setting: for Ac-SEEGYQDYEP-NH2 [129-138] the value was “no binding (tested: 1 µM)”; for Ac-MPSEEGYQDY-NH2 [peptide AS127-136], “no binding (tested: 1 µM)”.
For B5, the Kd in test [6] is 0.29 nM; in test [7], 0.6 nM; in test [8], 42.9 nM. In test [9], the “EC50 (read off the curve)” value is about 400 ng/mL.
In the case of B6, in test [10], the binding result is “no binding (tested: 1 micro gram of synuclein per lane)”. For the same molecule, the Kd was 0.53 nM in [11], 0.03 nM in test [12] and 119 nM in test [13].
On to B7, for which the Kd in [3] was 0.0156 nM.
On to Ac-QEGILEDMPV-NH2 [peptide AS109-118], for which, in [1], the binding result is listed as “no binding (tested: 1 µM)”.
Same read-out and setting: with Ac-DMPVDPDNEA-NH2 [peptide AS115-124] the entry was “binds”; with Ac-EAYEMPSEEG-NH2 [peptide AS123-132], “no binding (tested: 1 µM)”; with Ac-LEDMPVDPDN-NH2 [peptide AS113-122], “binds”.

One may read the koff as the rate constant with which the complex falls apart. One may read the kon as the second-order rate constant of association. As a reminder, the EC50 (read off the curve) is the concentration giving half of the maximal effect. Low readings indicate an effect from little substance, high ones a need for much substance.
